This note sets out measurements from US20230391844.

Data set [1] concerns mAb-PCL(15AA)-IL2-PCL(20AA)-IL2Rα.
The test system of data set [2] is mAb-PCL(15AA)-IL2-PCL(15AA)-IL2Rα.

For “recombinant human uPA (R&D Cat #1310-SE)”, the “release of free IL2 after uPA digestion (reducing SDS-PAGE, western blot probed with biotinylated anti-hIL2)” value was “the IL2 proprotein construct comprising a 20AA linker between IL2 and IL2Rα domains displayed a more complete linker digestion and IL2 release relative to the construct comprising a 15AA linker between IL2 and IL2Rα” in data set [1]; “Protease digestion of the IL2 proproteins with uPA resulted in the release of free IL2 from both IL2 proproteins” in data set [2].
